# Measurements taken from PMC7954794 (2021).
# B1: S. cerevisiae Abp1 (full length; SH3 domain 535-592 mutated) / Hua2 (parent complex)
# chain 1: MALEPIDYTTHSREIDAEYLKIVRGSDPDTTWLIISPNAKKEYEPESTGSSFHDFLQLFDETKVQYGLARVSPPGSDVEKIIIIGWCPDSAPLKTRASFAANFAAVANNLFKGYHVQVTARDEDDLDENELLMKISNAAGARYSIQTSSKQQGKASTPPVKKSFTPSKSPAPVSKKEPVKTPSPAPAAKISSRVNDNNDDDDWNEPELKERDFDQAPLKPNQSSYKPIGKIDLQKVIAEEKAKEDPRLVQKPTAAGSKIDPSSDIANLKNESKLKRDSEFNSFLGTTKPPSMTESSLKNDDDKVIKGFRNEKSPAQLWAERKAKQNSGNAETKAEAPKPEVPEDEPEGEPDVKDLKSKFEGLAASEKEEEEMENKFAPPPKKSEPTIISPKPFSKPQEPVKAEEAEQPKTDYKKIGNPLPGMHIEADNEEEPEENDDDWDDDEDEAAQPPLPSRNVASGAPVQKEEPEQEEIAPSLPSRNSIPAPKQEEAPEQAPEEEIEEEAEEAAPQLPSRSSAAPPPPPRRATPEKKPKENPWATAEYDYDAAEDNELTFVENDKIINIEFVDDDWWLGELEKDGSKGLFPSNYVSLGN
# chain 2: MQQTKFGKMYLDHDSVVEYSEDEIVEADRITLGYKKRLSMIENQMRHLLEDFSLDVQQIEPILADLQKYYDAFLQLLQKRNKSLQCKRSTHQPVPSPMNSQTSTNAKVNLSGKLMKFQLNSVQKFDEENILRILQNKIEFEHYFQIDKGKKQKVLLLAVYQCLNGPTRLHKVLNIEGIIHNNSIRTILGKQVSSSKWTVFLYDVKLVLLAHRQDVPNLETSKMIVRYGDLFPCALYFKDHTAY
# Variants of: B1
# Assay: DHFR protein-fragment complementation in yeast (Abp1-DHFR F[1,2] x partner-DHFR F[3]), deep mutational scanning, second methotrexate selection vs reference; S. cerevisiae, DHFR-PCA selection in liquid with methotrexate at 30 C, two 72 h selections (the score uses the second); reference = the pre-selection culture
row,Variant,screen value
1,chain 1 G578S,"-0.671 DMS score: mean over two replicates of log2(f_test/f_ref + 0.5)/ln 2, minus the synonymous-codon median (not a log2 …"
2,chain 1 G578H,"0.339 DMS score: mean over two replicates of log2(f_test/f_ref + 0.5)/ln 2, minus the synonymous-codon median (not a log2 …"
3,chain 1 G578N,"0.0866 DMS score: mean over two replicates of log2(f_test/f_ref + 0.5)/ln 2, minus the synonymous-codon median (not a log2 …"
4,chain 1 G578K,"-0.619 DMS score: mean over two replicates of log2(f_test/f_ref + 0.5)/ln 2, minus the synonymous-codon median (not a log2 …"
5,chain 1 L582K,"-2.94 DMS score: mean over two replicates of log2(f_test/f_ref + 0.5)/ln 2, minus the synonymous-codon median (not a log2 …"
6,chain 1 L582M,"-2.34 DMS score: mean over two replicates of log2(f_test/f_ref + 0.5)/ln 2, minus the synonymous-codon median (not a log2 …"
7,chain 1 E563Q,"-0.159 DMS score: mean over two replicates of log2(f_test/f_ref + 0.5)/ln 2, minus the synonymous-codon median (not a log2 …"
8,chain 1 E563S,"-0.411 DMS score: mean over two replicates of log2(f_test/f_ref + 0.5)/ln 2, minus the synonymous-codon median (not a log2 …"
9,chain 1 E563K,"-0.922 DMS score: mean over two replicates of log2(f_test/f_ref + 0.5)/ln 2, minus the synonymous-codon median (not a log2 …"
10,chain 1 D568V,"-2.62 DMS score: mean over two replicates of log2(f_test/f_ref + 0.5)/ln 2, minus the synonymous-codon median (not a log2 …"
11,chain 1 D568E,"-1.5 DMS score: mean over two replicates of log2(f_test/f_ref + 0.5)/ln 2, minus the synonymous-codon median (not a log2 …"
12,chain 1 D568W,"-2.95 DMS score: mean over two replicates of log2(f_test/f_ref + 0.5)/ln 2, minus the synonymous-codon median (not a log2 …"
13,chain 1 E547K,"-2.17 DMS score: mean over two replicates of log2(f_test/f_ref + 0.5)/ln 2, minus the synonymous-codon median (not a log2 …"
14,chain 1 E547Q,"-2.26 DMS score: mean over two replicates of log2(f_test/f_ref + 0.5)/ln 2, minus the synonymous-codon median (not a log2 …"
15,chain 1 E547Y,"-0.85 DMS score: mean over two replicates of log2(f_test/f_ref + 0.5)/ln 2, minus the synonymous-codon median (not a log2 …"
16,chain 1 N549L,"0.763 DMS score: mean over two replicates of log2(f_test/f_ref + 0.5)/ln 2, minus the synonymous-codon median (not a log2 …"
17,chain 1 N549T,"1.38 DMS score: mean over two replicates of log2(f_test/f_ref + 0.5)/ln 2, minus the synonymous-codon median (not a log2 …"
18,chain 1 N549M,"1.68 DMS score: mean over two replicates of log2(f_test/f_ref + 0.5)/ln 2, minus the synonymous-codon median (not a log2 …"
19,chain 1 N549S,"1.83 DMS score: mean over two replicates of log2(f_test/f_ref + 0.5)/ln 2, minus the synonymous-codon median (not a log2 …"
20,chain 1 N549I,"0.356 DMS score: mean over two replicates of log2(f_test/f_ref + 0.5)/ln 2, minus the synonymous-codon median (not a log2 …"

row,Variant,screen value
1,chain 1 K558V,"0.774 DMS score: mean over two replicates of log2(f_test/f_ref + 0.5)/ln 2, minus the synonymous-codon median (not a log2 …"
2,chain 1 K558M,"-0.491 DMS score: mean over two replicates of log2(f_test/f_ref + 0.5)/ln 2, minus the synonymous-codon median (not a log2 …"
3,chain 1 N556F,"-0.0258 DMS score: mean over two replicates of log2(f_test/f_ref + 0.5)/ln 2, minus the synonymous-codon median (not a log2 …"
4,chain 1 N556R,"0.377 DMS score: mean over two replicates of log2(f_test/f_ref + 0.5)/ln 2, minus the synonymous-codon median (not a log2 …"
5,chain 1 N556Q,"-0.244 DMS score: mean over two replicates of log2(f_test/f_ref + 0.5)/ln 2, minus the synonymous-codon median (not a log2 …"
6,chain 1 N556E,"-0.0705 DMS score: mean over two replicates of log2(f_test/f_ref + 0.5)/ln 2, minus the synonymous-codon median (not a log2 …"
7,chain 1 A539V,"-0.172 DMS score: mean over two replicates of log2(f_test/f_ref + 0.5)/ln 2, minus the synonymous-codon median (not a log2 …"
8,chain 1 D544S,"0.42 DMS score: mean over two replicates of log2(f_test/f_ref + 0.5)/ln 2, minus the synonymous-codon median (not a log2 …"
9,chain 1 D544R,"0.711 DMS score: mean over two replicates of log2(f_test/f_ref + 0.5)/ln 2, minus the synonymous-codon median (not a log2 …"
10,chain 1 D548W,"-0.639 DMS score: mean over two replicates of log2(f_test/f_ref + 0.5)/ln 2, minus the synonymous-codon median (not a log2 …"
11,chain 1 D548G,"-0.301 DMS score: mean over two replicates of log2(f_test/f_ref + 0.5)/ln 2, minus the synonymous-codon median (not a log2 …"
12,chain 1 D548Q,"0.195 DMS score: mean over two replicates of log2(f_test/f_ref + 0.5)/ln 2, minus the synonymous-codon median (not a log2 …"
13,chain 1 D548P,"1.53 DMS score: mean over two replicates of log2(f_test/f_ref + 0.5)/ln 2, minus the synonymous-codon median (not a log2 …"
14,chain 1 D548H,"0.00293 DMS score: mean over two replicates of log2(f_test/f_ref + 0.5)/ln 2, minus the synonymous-codon median (not a log2 …"
15,chain 1 D548C,"0.141 DMS score: mean over two replicates of log2(f_test/f_ref + 0.5)/ln 2, minus the synonymous-codon median (not a log2 …"
16,chain 1 F564Y,"0.127 DMS score: mean over two replicates of log2(f_test/f_ref + 0.5)/ln 2, minus the synonymous-codon median (not a log2 …"
17,chain 1 F564M,"0.421 DMS score: mean over two replicates of log2(f_test/f_ref + 0.5)/ln 2, minus the synonymous-codon median (not a log2 …"
18,chain 1 F564K,"-2.62 DMS score: mean over two replicates of log2(f_test/f_ref + 0.5)/ln 2, minus the synonymous-codon median (not a log2 …"
19,chain 1 F564R,"-2.96 DMS score: mean over two replicates of log2(f_test/f_ref + 0.5)/ln 2, minus the synonymous-codon median (not a log2 …"

# Other lines, results leading:
row,screen value,Variant
1,"-0.676 DMS score: mean over two replicates of log2(f_test/f_ref + 0.5)/ln 2, minus the synonymous-codon median (not a log2 …",chain 1 Y543H
2,"-0.0677 DMS score: mean over two replicates of log2(f_test/f_ref + 0.5)/ln 2, minus the synonymous-codon median (not a log2 …",chain 1 P535G
3,"0.0686 DMS score: mean over two replicates of log2(f_test/f_ref + 0.5)/ln 2, minus the synonymous-codon median (not a log2 …",chain 1 P535F
4,"1.46 DMS score: mean over two replicates of log2(f_test/f_ref + 0.5)/ln 2, minus the synonymous-codon median (not a log2 …",chain 1 P535C
5,"0.729 DMS score: mean over two replicates of log2(f_test/f_ref + 0.5)/ln 2, minus the synonymous-codon median (not a log2 …",chain 1 P535N
6,"-1.6 DMS score: mean over two replicates of log2(f_test/f_ref + 0.5)/ln 2, minus the synonymous-codon median (not a log2 …",chain 1 Y541A
7,"-0.138 DMS score: mean over two replicates of log2(f_test/f_ref + 0.5)/ln 2, minus the synonymous-codon median (not a log2 …",chain 1 W569Y
8,"0.37 DMS score: mean over two replicates of log2(f_test/f_ref + 0.5)/ln 2, minus the synonymous-codon median (not a log2 …",chain 1 S589K
9,"0.074 DMS score: mean over two replicates of log2(f_test/f_ref + 0.5)/ln 2, minus the synonymous-codon median (not a log2 …",chain 1 S589A
10,"0.802 DMS score: mean over two replicates of log2(f_test/f_ref + 0.5)/ln 2, minus the synonymous-codon median (not a log2 …",chain 1 S589I
11,"0.593 DMS score: mean over two replicates of log2(f_test/f_ref + 0.5)/ln 2, minus the synonymous-codon median (not a log2 …",chain 1 S589V
12,"-0.0692 DMS score: mean over two replicates of log2(f_test/f_ref + 0.5)/ln 2, minus the synonymous-codon median (not a log2 …",chain 1 S589M
13,"1.15 DMS score: mean over two replicates of log2(f_test/f_ref + 0.5)/ln 2, minus the synonymous-codon median (not a log2 …",chain 1 S589E
14,"1.22 DMS score: mean over two replicates of log2(f_test/f_ref + 0.5)/ln 2, minus the synonymous-codon median (not a log2 …",chain 1 S589N
15,"0.723 DMS score: mean over two replicates of log2(f_test/f_ref + 0.5)/ln 2, minus the synonymous-codon median (not a log2 …",chain 1 S589L
16,"1.03 DMS score: mean over two replicates of log2(f_test/f_ref + 0.5)/ln 2, minus the synonymous-codon median (not a log2 …",chain 1 S585C
17,"0.746 DMS score: mean over two replicates of log2(f_test/f_ref + 0.5)/ln 2, minus the synonymous-codon median (not a log2 …",chain 1 S585M
18,"-2.72 DMS score: mean over two replicates of log2(f_test/f_ref + 0.5)/ln 2, minus the synonymous-codon median (not a log2 …",chain 1 S585P

row,screen value,Variant
1,"-0.67 DMS score: mean over two replicates of log2(f_test/f_ref + 0.5)/ln 2, minus the synonymous-codon median (not a log2 …",chain 1 S585T
2,"-0.703 DMS score: mean over two replicates of log2(f_test/f_ref + 0.5)/ln 2, minus the synonymous-codon median (not a log2 …",chain 1 T538K
3,"0.524 DMS score: mean over two replicates of log2(f_test/f_ref + 0.5)/ln 2, minus the synonymous-codon median (not a log2 …",chain 1 T538V
4,"-0.148 DMS score: mean over two replicates of log2(f_test/f_ref + 0.5)/ln 2, minus the synonymous-codon median (not a log2 …",chain 1 T538Y
5,"-0.268 DMS score: mean over two replicates of log2(f_test/f_ref + 0.5)/ln 2, minus the synonymous-codon median (not a log2 …",chain 1 T538C
6,"0.616 DMS score: mean over two replicates of log2(f_test/f_ref + 0.5)/ln 2, minus the synonymous-codon median (not a log2 …",chain 1 T552S
7,"-0.374 DMS score: mean over two replicates of log2(f_test/f_ref + 0.5)/ln 2, minus the synonymous-codon median (not a log2 …",chain 1 T552N
8,"-0.688 DMS score: mean over two replicates of log2(f_test/f_ref + 0.5)/ln 2, minus the synonymous-codon median (not a log2 …",chain 1 T552D
9,"2.37 DMS score: mean over two replicates of log2(f_test/f_ref + 0.5)/ln 2, minus the synonymous-codon median (not a log2 …",chain 1 N586G
10,"1.82 DMS score: mean over two replicates of log2(f_test/f_ref + 0.5)/ln 2, minus the synonymous-codon median (not a log2 …",chain 1 N586A
11,"1.83 DMS score: mean over two replicates of log2(f_test/f_ref + 0.5)/ln 2, minus the synonymous-codon median (not a log2 …",chain 1 N586T
12,"-1.03 DMS score: mean over two replicates of log2(f_test/f_ref + 0.5)/ln 2, minus the synonymous-codon median (not a log2 …",chain 1 N586Q
13,"1.04 DMS score: mean over two replicates of log2(f_test/f_ref + 0.5)/ln 2, minus the synonymous-codon median (not a log2 …",chain 1 N586V
14,"-0.863 DMS score: mean over two replicates of log2(f_test/f_ref + 0.5)/ln 2, minus the synonymous-codon median (not a log2 …",chain 1 N586L
15,"-1.53 DMS score: mean over two replicates of log2(f_test/f_ref + 0.5)/ln 2, minus the synonymous-codon median (not a log2 …",chain 1 N586E
16,"0.632 DMS score: mean over two replicates of log2(f_test/f_ref + 0.5)/ln 2, minus the synonymous-codon median (not a log2 …",chain 1 N586I
17,"2 DMS score: mean over two replicates of log2(f_test/f_ref + 0.5)/ln 2, minus the synonymous-codon median (not a log2 …",chain 1 N586S
18,"-1.55 DMS score: mean over two replicates of log2(f_test/f_ref + 0.5)/ln 2, minus the synonymous-codon median (not a log2 …",chain 1 N586K
